Laboratory results: the nanobody polyreactivity screen of Harvey et al. (2022)

Assay: yeast display, Sf9 membrane polyspecificity reagent, FACS + sequencing; frameworks hold sequencing errors
How it was run: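 After 36–48 hours of galactose induction, yeast (Saccharomyces cerevisiae BJ5465) displaying a synthetic nanobody library were stained at 4 °C for 1 hour with 10% biotinylated, detergent-solubilized Sf9 membrane reagent. Streptavidin microbeads enriched the stained cells before FACS sorting into low and high (top ~1%) gates on anti-HA and streptavidin fluorescence. Each clone's polyreactivity label reflects its gate of origin.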

Sequence | polyreactivity (PSR sort gate)
QVQLVESGGGLVQAGGSLRLSCAASGFTIYYYAMGWYRQAPGKVRELVASITSGGSTYYADSVKGRFTISRDNAMNTVYLQMNSLKPEDTAVYYCAQTRFHSKEGDYWGQGTQVTVSS | low polyreactivity
QVQLVESGGGLVQAGGSLRLSCAASGFTLAFYGMGWYRQAPGKERELVAAISWSGDSTYYADSVKGRFTISRDNAKNTVYLQMNSLKPEDTAVYYCAKPKRRFYDRPSDYWGQGTQVTVSS | high polyreactivity
QVQLVESGGGLVQAGGSLRLSCAASGFTLALNAMGWYRQAPGKERELVAVINSGGSTNYADSVKGRFTISRDNAKNTVYLQMNSLKPEDTAVYYYWGQGTQVTESS | low polyreactivity
QVQLVESGGGLVQAGGSLRLSCAASGFTLAWYAMGWYRQAPGKERELVATIRSGGNTYYADSVKGRFTISRDNAKNTVYLQMNSLKPEDTAVYYCAKTHTYPRYGRGYDYWGQGTQVTVSS | high polyreactivity
QVQLVESGGGLVQAGGSLRLSCAASGFTLDWYVMGWYRQAPGKDRELVAAISSSGGRTYYADSVKGRFTISRDNAKNTVYLQMNSLKPEDTAVYYCAARNKYGGYPYGYDYWGQGTQVTVSS | high polyreactivity
QVQLVESGGGLVQAGGSLRLSCAASGFTLDWYVMGWYRQAPGKERELVAAISSSGGRTYYADSVKGRFTISRDNAKNTVSLQLNSLKPEDTAVYYCAARNKYGGYPYGYDYWGQGTQVTVSS | high polyreactivity
QVQLVESGGGLVQAGGSLRLSCAASGFTLDWYVMGWYRQAPGKERELVAAISSSGGRTYYADSVKGRFTISRDNAKNTVYLQMNSLKPEDPAVYYCAARNKYGGYPYGYDYWGQGTQVTVSS | high polyreactivity
QVQLVESGGGLVQAGGSLRLSCAASGFTLEFYAMGWYRQAPGKERELVAAISKSGGSTYYADSVKGRFTISRDNAKNTVYLQMNSLKPEDTAVYYCAKVNSYGPVPDRYDYWGQGTQVTVSS | high polyreactivity
QVQLVESGGGLVQAGGSLRLSCAASGFTLEFYAMGWYRQAPGKERELVASISSGGRTNYADSVKGRFTISRDNAKNTVFLQMNSLKPEDTAVYYCAAEYRSWGRYRYRFNYWGQGTQVTVSS | high polyreactivity
QVQLVESGGGLVQAGGSLRLSCAASGFTLENYAMGWYRQAPGKARELVAAINCRGSRTYYADSVKGRFTISRDNAMNTVYLQMNSLKPEDTAVYYCARDKRTNSGFYYWGQGTQVTVSS | high polyreactivity
QVQLVESGGGLVQAGGSLRLSCAASGFTLGFNARGWYRQAPGKERELVAAITIGGTTYYADSVKGRFTISRDNAKNTVYLQMNSLKPEDTAVYYCAAARFLWFYVYTTRVQRYGYWGQGTQVTVSS | low polyreactivity
QVQLVESGGGLVQAGGSLRLSCAASGFTLGFYAMAWYRPAPGKERELVAAINWRGGSTYYADSVKGRFTISRYNAKNTVYLQMNSLKPADTAVYYSNRVYRPSLYDYWGQGTQVSVSS | high polyreactivity
QVQLVESGGGLVQAGGSLRLSCAASGFTLGLYAMGWYRQAPGKERELVAAITAGGDSTDYADSVKGRFTISRDNAKNTVYLQMNSLKPEDTAVYYCAAPSYWLYYYILDSSDYWGQGTQVTVSS | high polyreactivity
QVQLVESGGGLVQAGGSLRLSCAASGFTLGSKVMGWYRQAHGKERELVAGISQSGGRTFYADSVKGRFTISRDNAKNTVYLQMNSLKPEDTAVYYCAAGYYPYWGQGTLVTVSS | low polyreactivity
QVQLVESGGGLVQAGGSLRLSCAASGFTLGYNAMGWYRQAPGTERELVAAITRSGGSTYYADSVKGRFTISRDNAKNTVYLQMNSLKPEDTAVYYCNARSVYGSKQEEYWGQGTQVTVSS | high polyreactivity
QVQLVESGGGLVQAGGSLRLSCAASGFTLHVYAMGWYRQAPGKERELVAAISTGGNTNYADSVKGRFTISRDNAKNTVYLQMNSLKAEDTAVYYCNARYTSRRSRRPYYEWGQGTQVTVSS | high polyreactivity

Sequence | polyreactivity (PSR sort gate)
QVQLVESGGGLVQAGGSLRLSCAASGFTLIDYAMGWYRQAPGKERELVAAISGSGGRTYYADSVKGRFTISRDNAKNTVYLQMNSLKPEDTAVYYCAAGRRHVYKRRRYDYWGQGTQVTVSS | high polyreactivity
QVQLVESGGGLVQAGGSLRLSCAASGFTLLTYVMGWYRQAPGKERELVAAISKSGSRTYYADSVKGRFTISRDNAKNTVYVQMNSLKPEDTPVYYCAADTSAYRYDYWGQGTQVTVSS | high polyreactivity
QVQLVESGGGLVQAGGSLRLSCAASGFTLPLYAMGWYRQAPGKERELVAAISSGGGRTYYADSVKGRFTISRDNAKNTVYLQMNSLKPEDTAVYYCNVDRWWLGWYKFNYWGQGTQVTVSS | high polyreactivity
QVQLVESGGGLVQAGGSLRLSCAASGFTLPVYAMGWYRQAPGKERELVARITWSAGRTYYADSVKGRFTISRDNAKNTVYLQMNSLKPEDTAVYYCAAGPVSQQHSPGPHDYWGQGTQVTVSS | high polyreactivity
QVQLVESGGGLVQAGGSLRLSCAASGFTLQGYAMGWYRQAPGKERELVAAIRWIGTSTYYADSVKGRFTISRDNAKNTVYLQMNSLKPEDTAVYYCAAVVRRVRPEGSYNRWGHDYWGQGTQVTVSS | high polyreactivity
QVQLVESGGGLVQAGGSLRLSCAASGFTLQSNAMGWFRQATGKERELVAAISFRGGSTYYADSVKGRFTISRDNAKNTVYLQMNSLKPEDTAVYYCAADFYFHSAYNYGYWGQGTQVTVSS | low polyreactivity
QVQLVESGGGLVQAGGSLRLSCAASGFTLRKYVMGWYRQAPGKERELVAAITSSASSTYYADTVKGRFTISRDNAKNTVYLQMNSMKPEDTAVYYCAARGRPYRGSYYWGQGTQVTVSS | high polyreactivity
QVQLVESGGGLVQAGGSLRLSCAASGFTLRSYTMGWYRQAPGKERELVAAITSRGTSTYYADSVKGRFTISRDNAKNTVYLQMNSLKPEDTAVYYCADPIYNGYASWQVYYWGQGTQVTVSS | high polyreactivity
QVQLVESGGGLVQAGGSLRLSCAASGFTLRYYAMGWYRQAPGKERELVATINRSGASTYYADSVKGRFTISRDNAKNTVYLQMNRLKPEDTAVYYCNTATSRAYRYDYWGQGTQVTVSS | high polyreactivity
QVQLVESGGGLVQAGGSLRLSCAASGFTLSRYAMGWYRQAPGKERELVAAISSSGDSTYYADSVKGRFTISRDNAKNTVYLQMNSLKPEDTAVYYCNVYTYHRYDYWGQGTQVTVSS | high polyreactivity
QVQLVESGGGLVQAGGSLRLSCAASGFTLSYYAMGWYRQAPGKERELVASISAIGGITYYADSVKGRFTISRDNAKNTVYLQMNSLKPEDTAVYYCARQGRRYRRFDSWGQGTKVTVSS | high polyreactivity
QVQLVESGGGLVQAGGSLRLSCAASGFTLWLNAMGWYRQAPGKERELVAAITTSDDGTYYADSVKGRFTISRDNAKNSVYLQMNSLKPEDTAVYYCAADYYSVLYDYWGQGTQVTVSS | low polyreactivity
QVQLVESGGGLVQAGGSLRLSCAASGFTLYFYVMGWYRQAPGKERELVAAITSGGSTYYADSVKGRFTISRDNAKNTVYLQMNSLKPEDTAVYYCAARRSPSRRYLGNYWGQGTQVTVSS | high polyreactivity
QVQLVESGGGLVQAGGSLRLSCAASGFTLYHYAMGWYRQAPGKERELVAAITTSGSRTYYADSVKGRFTISRDNAKNTVYLQMNSLKPEDTAVYYCNAVASSTEYDYWGQGTQVTVSS | high polyreactivity
QVQLVESGGGLVQAGGSLRLSCAASGFTLYPYGMGWYRQAAGKERELVASISSRVGRTYYADSVKGRFTISRDNAKNTVYLQMNSLKPEDTAVYYCAASRLVRYQSRYASWGQGTQVTVSS | high polyreactivity
QVQLVESGGGLVQAGGSLRLSCAASGFTLYSNTMGWYRQATGKERELVAAINYSGGSTYYADSVKGRFTISRDNAKNTVYLQMNSLKPEDTPVYYCATDLHWLVTKYGYWGQGTQVTVSS | low polyreactivity
